According to patent US20240270846A1 (published 2024):

B1: CE115HA000/GLS3000 H34K one-arm antibody (antibody, human IgG1, kappa, L234A L235A, N297A, name in Kabat numbering)
heavy: QVQLVESGGGVVQPGRSLRLSCAASGFTFSNAWMHWVRQAPGKGLEWVAQIKAKSNNYATYYAESVKGRFTISRDDSKNSLYLQMNSLKTEDTAVYYCRYVHYGAYYGVDAWGQGTTVTVSSASTKGPSVFPLAPSSKSTSGGTAALGCLVKDYFPEPVTVSWNSGALTSGVHTFPAVLQSSGLYSLSSVVTVPSSSLGTQTYICNVNHKPSNTKVDKKVEPKSCDKTHTCPPCPAPEAAGGPSVFLFPPKPKDTLMISRTPEVTCVVVDVSHEDPEVKFNWYVDGVEVHNAKTKPREEQYASTYRVVSVLTVLHQDWLNGKEYKCKVSNKALPAPIEKTISKAKGQPREPQVYTLPPSRCELTKNQVSLSCAVKGFYPSDIAVEWESNGQPENNYKTTPPVLDSDGSFFLVSKLTVDKSRWQQGNVFSCSVMHEALHNHYTQKSLSLSPDYKDDDDK
chain: EPKSSDKTHTCPPCPAPELLGGPSVFLFPPKPKDTLMISRTPEVTCVVVDVSHEDPEVKFNWYVDGVEVHNAKTKPREEQYNSTYRVVSVLTVLHQDWLNGKEYKCKVSNKALPAPIEKTISKAKGQPREPQVCTLPPSRDELTKNQVSLWCLVKGFYPSDIAVEWESNGQPENNYKTTPPVLDSDGSFFLYSKLTVDKSRWQQGNVFSCSVMHEALHNRYTQKSLSLSP
light: DIVMTQSPLSLPVTPGEPASISCRSSQSLVHSNRNTYLKWYQQKPGQAPRLLIYKVSNRFSGVPDRFSGSGSGTDFTLKISRVEAEDVGVYYCGQGTQVPYTFGQGTKLEIKRTVAAPSVFIFPPSDEQLKSGTASVVCLLNNFYPREAKVQWKVDNALQSGNSQESVTEQDSKDSTYSLSSTLTLSKADYEKHKVYACEVTHQGLSSPVTKSFNRGEC
notes: one-arm IgG1
B2: CE115HA000/GLS3000 H34L one-arm antibody (antibody, human IgG1, kappa, L234A L235A, N297A, name in Kabat numbering)
heavy: QVQLVESGGGVVQPGRSLRLSCAASGFTFSNAWMHWVRQAPGKGLEWVAQIKAKSNNYATYYAESVKGRFTISRDDSKNSLYLQMNSLKTEDTAVYYCRYVHYGAYYGVDAWGQGTTVTVSSASTKGPSVFPLAPSSKSTSGGTAALGCLVKDYFPEPVTVSWNSGALTSGVHTFPAVLQSSGLYSLSSVVTVPSSSLGTQTYICNVNHKPSNTKVDKKVEPKSCDKTHTCPPCPAPEAAGGPSVFLFPPKPKDTLMISRTPEVTCVVVDVSHEDPEVKFNWYVDGVEVHNAKTKPREEQYASTYRVVSVLTVLHQDWLNGKEYKCKVSNKALPAPIEKTISKAKGQPREPQVYTLPPSRCELTKNQVSLSCAVKGFYPSDIAVEWESNGQPENNYKTTPPVLDSDGSFFLVSKLTVDKSRWQQGNVFSCSVMHEALHNHYTQKSLSLSPDYKDDDDK
chain: EPKSSDKTHTCPPCPAPELLGGPSVFLFPPKPKDTLMISRTPEVTCVVVDVSHEDPEVKFNWYVDGVEVHNAKTKPREEQYNSTYRVVSVLTVLHQDWLNGKEYKCKVSNKALPAPIEKTISKAKGQPREPQVCTLPPSRDELTKNQVSLWCLVKGFYPSDIAVEWESNGQPENNYKTTPPVLDSDGSFFLYSKLTVDKSRWQQGNVFSCSVMHEALHNRYTQKSLSLSP
light: DIVMTQSPLSLPVTPGEPASISCRSSQSLVHSNRNTYLLWYQQKPGQAPRLLIYKVSNRFSGVPDRFSGSGSGTDFTLKISRVEAEDVGVYYCGQGTQVPYTFGQGTKLEIKRTVAAPSVFIFPPSDEQLKSGTASVVCLLNNFYPREAKVQWKVDNALQSGNSQESVTEQDSKDSTYSLSSTLTLSKADYEKHKVYACEVTHQGLSSPVTKSFNRGEC
notes: one-arm IgG1
B3: CE115HA000/GLS3000 H34M one-arm antibody (antibody, human IgG1, kappa, L234A L235A, N297A, name in Kabat numbering)
heavy: QVQLVESGGGVVQPGRSLRLSCAASGFTFSNAWMHWVRQAPGKGLEWVAQIKAKSNNYATYYAESVKGRFTISRDDSKNSLYLQMNSLKTEDTAVYYCRYVHYGAYYGVDAWGQGTTVTVSSASTKGPSVFPLAPSSKSTSGGTAALGCLVKDYFPEPVTVSWNSGALTSGVHTFPAVLQSSGLYSLSSVVTVPSSSLGTQTYICNVNHKPSNTKVDKKVEPKSCDKTHTCPPCPAPEAAGGPSVFLFPPKPKDTLMISRTPEVTCVVVDVSHEDPEVKFNWYVDGVEVHNAKTKPREEQYASTYRVVSVLTVLHQDWLNGKEYKCKVSNKALPAPIEKTISKAKGQPREPQVYTLPPSRCELTKNQVSLSCAVKGFYPSDIAVEWESNGQPENNYKTTPPVLDSDGSFFLVSKLTVDKSRWQQGNVFSCSVMHEALHNHYTQKSLSLSPDYKDDDDK
chain: EPKSSDKTHTCPPCPAPELLGGPSVFLFPPKPKDTLMISRTPEVTCVVVDVSHEDPEVKFNWYVDGVEVHNAKTKPREEQYNSTYRVVSVLTVLHQDWLNGKEYKCKVSNKALPAPIEKTISKAKGQPREPQVCTLPPSRDELTKNQVSLWCLVKGFYPSDIAVEWESNGQPENNYKTTPPVLDSDGSFFLYSKLTVDKSRWQQGNVFSCSVMHEALHNRYTQKSLSLSP
light: DIVMTQSPLSLPVTPGEPASISCRSSQSLVHSNRNTYLMWYQQKPGQAPRLLIYKVSNRFSGVPDRFSGSGSGTDFTLKISRVEAEDVGVYYCGQGTQVPYTFGQGTKLEIKRTVAAPSVFIFPPSDEQLKSGTASVVCLLNNFYPREAKVQWKVDNALQSGNSQESVTEQDSKDSTYSLSSTLTLSKADYEKHKVYACEVTHQGLSSPVTKSFNRGEC
notes: one-arm IgG1
B4: CE115HA000/GLS3000 H34N one-arm antibody (antibody, human IgG1, kappa, L234A L235A, N297A, name in Kabat numbering)
heavy: QVQLVESGGGVVQPGRSLRLSCAASGFTFSNAWMHWVRQAPGKGLEWVAQIKAKSNNYATYYAESVKGRFTISRDDSKNSLYLQMNSLKTEDTAVYYCRYVHYGAYYGVDAWGQGTTVTVSSASTKGPSVFPLAPSSKSTSGGTAALGCLVKDYFPEPVTVSWNSGALTSGVHTFPAVLQSSGLYSLSSVVTVPSSSLGTQTYICNVNHKPSNTKVDKKVEPKSCDKTHTCPPCPAPEAAGGPSVFLFPPKPKDTLMISRTPEVTCVVVDVSHEDPEVKFNWYVDGVEVHNAKTKPREEQYASTYRVVSVLTVLHQDWLNGKEYKCKVSNKALPAPIEKTISKAKGQPREPQVYTLPPSRCELTKNQVSLSCAVKGFYPSDIAVEWESNGQPENNYKTTPPVLDSDGSFFLVSKLTVDKSRWQQGNVFSCSVMHEALHNHYTQKSLSLSPDYKDDDDK
chain: EPKSSDKTHTCPPCPAPELLGGPSVFLFPPKPKDTLMISRTPEVTCVVVDVSHEDPEVKFNWYVDGVEVHNAKTKPREEQYNSTYRVVSVLTVLHQDWLNGKEYKCKVSNKALPAPIEKTISKAKGQPREPQVCTLPPSRDELTKNQVSLWCLVKGFYPSDIAVEWESNGQPENNYKTTPPVLDSDGSFFLYSKLTVDKSRWQQGNVFSCSVMHEALHNRYTQKSLSLSP
light: DIVMTQSPLSLPVTPGEPASISCRSSQSLVHSNRNTYLNWYQQKPGQAPRLLIYKVSNRFSGVPDRFSGSGSGTDFTLKISRVEAEDVGVYYCGQGTQVPYTFGQGTKLEIKRTVAAPSVFIFPPSDEQLKSGTASVVCLLNNFYPREAKVQWKVDNALQSGNSQESVTEQDSKDSTYSLSSTLTLSKADYEKHKVYACEVTHQGLSSPVTKSFNRGEC
notes: one-arm IgG1
B5: CE115HA000/GLS3000 H34P one-arm antibody (antibody, human IgG1, kappa, L234A L235A, N297A, name in Kabat numbering)
heavy: QVQLVESGGGVVQPGRSLRLSCAASGFTFSNAWMHWVRQAPGKGLEWVAQIKAKSNNYATYYAESVKGRFTISRDDSKNSLYLQMNSLKTEDTAVYYCRYVHYGAYYGVDAWGQGTTVTVSSASTKGPSVFPLAPSSKSTSGGTAALGCLVKDYFPEPVTVSWNSGALTSGVHTFPAVLQSSGLYSLSSVVTVPSSSLGTQTYICNVNHKPSNTKVDKKVEPKSCDKTHTCPPCPAPEAAGGPSVFLFPPKPKDTLMISRTPEVTCVVVDVSHEDPEVKFNWYVDGVEVHNAKTKPREEQYASTYRVVSVLTVLHQDWLNGKEYKCKVSNKALPAPIEKTISKAKGQPREPQVYTLPPSRCELTKNQVSLSCAVKGFYPSDIAVEWESNGQPENNYKTTPPVLDSDGSFFLVSKLTVDKSRWQQGNVFSCSVMHEALHNHYTQKSLSLSPDYKDDDDK
chain: EPKSSDKTHTCPPCPAPELLGGPSVFLFPPKPKDTLMISRTPEVTCVVVDVSHEDPEVKFNWYVDGVEVHNAKTKPREEQYNSTYRVVSVLTVLHQDWLNGKEYKCKVSNKALPAPIEKTISKAKGQPREPQVCTLPPSRDELTKNQVSLWCLVKGFYPSDIAVEWESNGQPENNYKTTPPVLDSDGSFFLYSKLTVDKSRWQQGNVFSCSVMHEALHNRYTQKSLSLSP
light: DIVMTQSPLSLPVTPGEPASISCRSSQSLVHSNRNTYLPWYQQKPGQAPRLLIYKVSNRFSGVPDRFSGSGSGTDFTLKISRVEAEDVGVYYCGQGTQVPYTFGQGTKLEIKRTVAAPSVFIFPPSDEQLKSGTASVVCLLNNFYPREAKVQWKVDNALQSGNSQESVTEQDSKDSTYSLSSTLTLSKADYEKHKVYACEVTHQGLSSPVTKSFNRGEC
notes: one-arm IgG1
B6: CE115HA000/GLS3000 H34Q one-arm antibody (antibody, human IgG1, kappa, L234A L235A, N297A, name in Kabat numbering)
heavy: QVQLVESGGGVVQPGRSLRLSCAASGFTFSNAWMHWVRQAPGKGLEWVAQIKAKSNNYATYYAESVKGRFTISRDDSKNSLYLQMNSLKTEDTAVYYCRYVHYGAYYGVDAWGQGTTVTVSSASTKGPSVFPLAPSSKSTSGGTAALGCLVKDYFPEPVTVSWNSGALTSGVHTFPAVLQSSGLYSLSSVVTVPSSSLGTQTYICNVNHKPSNTKVDKKVEPKSCDKTHTCPPCPAPEAAGGPSVFLFPPKPKDTLMISRTPEVTCVVVDVSHEDPEVKFNWYVDGVEVHNAKTKPREEQYASTYRVVSVLTVLHQDWLNGKEYKCKVSNKALPAPIEKTISKAKGQPREPQVYTLPPSRCELTKNQVSLSCAVKGFYPSDIAVEWESNGQPENNYKTTPPVLDSDGSFFLVSKLTVDKSRWQQGNVFSCSVMHEALHNHYTQKSLSLSPDYKDDDDK
chain: EPKSSDKTHTCPPCPAPELLGGPSVFLFPPKPKDTLMISRTPEVTCVVVDVSHEDPEVKFNWYVDGVEVHNAKTKPREEQYNSTYRVVSVLTVLHQDWLNGKEYKCKVSNKALPAPIEKTISKAKGQPREPQVCTLPPSRDELTKNQVSLWCLVKGFYPSDIAVEWESNGQPENNYKTTPPVLDSDGSFFLYSKLTVDKSRWQQGNVFSCSVMHEALHNRYTQKSLSLSP
light: DIVMTQSPLSLPVTPGEPASISCRSSQSLVHSNRNTYLQWYQQKPGQAPRLLIYKVSNRFSGVPDRFSGSGSGTDFTLKISRVEAEDVGVYYCGQGTQVPYTFGQGTKLEIKRTVAAPSVFIFPPSDEQLKSGTASVVCLLNNFYPREAKVQWKVDNALQSGNSQESVTEQDSKDSTYSLSSTLTLSKADYEKHKVYACEVTHQGLSSPVTKSFNRGEC
notes: one-arm IgG1

Biological target: T1, CD3 epsilon homodimer protein (UniProt P07766 23-126)
T1 construct: also called CD3 (CD3 epsilon)
T1 sequence (P07766 23-126): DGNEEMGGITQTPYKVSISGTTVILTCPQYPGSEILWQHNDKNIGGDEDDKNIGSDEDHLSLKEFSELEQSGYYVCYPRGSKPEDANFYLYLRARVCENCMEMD
Test: SPR (Biacore T200), CD3e homodimer on CM4 chip, antibody as analyte; KD ratio vs unaltered GLS3000;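 also: CD3 epsilon homodimer amine-coupled to the sensor surface, antibodies injected as analyte at 25 °C with HBS-EP+ running buffer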
Procedure: An appropriate amount of CD3 epsilon homodimer protein was immobilized onto Sensor chip CM4 (GE Healthcare Japan Corp.) by the amine coupling method. Then, the antibody having an appropriate concentration was injected thereto as an analyte and allowed to interact with the CD3 epsilon homodimer protein on the sensor chip. Then, the sensor chip was regenerated by the injection of 10 mmol/L glycine-HCl (pH 1.5). The assay was conducted at 25 degrees C., and HBS-EP+(GE Healthcare Japan Corp.) was used as a running buffer. […] Each parameter was calculated using Biacore T200 Evaluation Software (GE Healthcare Japan Corp.).
Specifically, when the amount of the GLS3000-containing antibody bound was defined as X and the amount of the L chain one-amino acid altered form bound was defined as Y, a value of Z (ratio of amounts bound)=Y/X was used.

Q: With B1 as the binder, how does the “KD ratio to GLS3000” value read?
A: The value was 4.1 ratio.

Q: How did the “KD ratio to GLS3000” value turn out when B2 was run?
A: The value was 1.03 ratio.

Q: For B3, which “KD ratio to GLS3000” value is on record?
A: The value was 3.16 ratio.

Q: Which “KD ratio to GLS3000” value does the source give for B4 here?
A: The value was 2.84 ratio.

Q: With B5 as the binder, how does the “KD ratio to GLS3000” value read?
A: The value was 1.22 ratio.

Q: With B6 as the binder, how does the “KD ratio to GLS3000” value read?
A: Its value is 4.6 ratio.
